The conditions of this data set: Homo sapiens; pH 7; 37 °C; GdnHCl; Fluorescence; Sodium phosphate 10 mM; transition: 3; whole UniProt chain shown.

B1: Gamma-crystallin D wild type, P07320 (protein)
chain: MGKITLYEDRGFQGRHYECSSDHPNLQPYLSRCNSARVDSGCWMLYEQPNYSGLQYFLRRGDYADHQQWMGLSDSVRSCRLIPHSGSHRIRLYEREDYRGQMIEFTEDCSCLQDRFRFNEIHSLNVLEGSWVLYELSNYRGRQYLLMPGDYRRYQDWGATNARVGSLRRVIDFS
In the case of B1, the denaturant m value turned out to be 3.1 kcal/mol/M, the “denaturant midpoint (higher = more stable)” value was 2.8 M and the unfolding free energy was found to be 8.9 kcal/mol.
